Assay type in all cases: cell-based
One assay concerns the target T1, SSTR4 (Homo sapiens, UniProt P31391).
T1 construct: The entire GPCR coding regions were cloned downstream of the CMV promoter and upstream of the ED; expressed in transfected cells; host or cells: HEK293 or CHOK1 cells, retroviral infection (pLNCX2)
Description: PathHunter β-arrestin2-EA / GPCR-ED enzyme fragment complementation, SSTR4-ED fusion. The settings on record: saturating ligand.

Another assay has as its target T2, CHRM2 (Homo sapiens, UniProt P08172).
T2 construct: The entire GPCR coding regions were cloned downstream of the CMV promoter and upstream of the ED; expressed in transfected cells; host or cells: HEK293 or CHOK1 cells, retroviral infection (pLNCX2)
In words: PathHunter β-arrestin2-EA / GPCR-ED enzyme fragment complementation, CHRM2-ED fusion. Conditions: saturating ligand. An excerpt: (§1) The following are the directions for performing the determinations of the response to inducing agents and comparing the prior art ED (pK1) to an ED of the subject invention (pK2):
(§2) The cells used were HEK293 and CHOK1 cells. Following substantially the procedures described in U.S. patent application Ser. No. 10/229,247, filed Aug. 27, 2002, and U.S. patent application Ser. No. 11/132,764 (Publication no. 2005/0287522), filed May 18, 2005, whose disclosures are specifically incorporated by reference, each of the cell lines was infected with retroviral constructs. The viral plasmid was the PLNCX2 vector from Clontech. The plasmid includes sufficient retroviral sequences to enable viral production in the appropriate packaging cell lines. The plasmid also includes the neomycin antibiotic resistance gene and a CMV promoter that is used to drive expression of the target ED fusion. […] The ED is fused at the intracellular terminus, i.e., C-terminus of the proteins.
(§3) Preparation of Detection Reagents—The detection reagents must be prepared as a working solution prior to use, and once prepared are stable for at least 24 hours at room temperature with no impact on assay performance. The detection reagents consist of the substrate and co-factors for chemiluminescence signal detection, as well as the reagents necessary for selective cell permeabilization. […]

The target in another assay is T3, CRTH2 (Homo sapiens, UniProt Q9Y5Y4).
T3 construct: The entire GPCR coding regions were cloned downstream of the CMV promoter and upstream of the ED; expressed in transfected cells; host or cells: HEK293 or CHOK1 cells, retroviral infection (pLNCX2)
Description: PathHunter β-arrestin2-EA / GPCR-ED enzyme fragment complementation, CRTH2-ED fusion. Conditions: saturating ligand.
From the text: as §1, §2, §3

The target in another assay is T4, P2RY6 (Homo sapiens, UniProt Q15077).
T4 construct: The entire GPCR coding regions were cloned downstream of the CMV promoter and upstream of the ED; expressed in transfected cells; host or cells: HEK293 or CHOK1 cells, retroviral infection (pLNCX2)
Description: PathHunter β-arrestin2-EA / GPCR-ED enzyme fragment complementation, P2RY6-ED fusion. The settings on record: saturating ligand.
From the text: as §1, §2, §3

In a further assay the target is T5, CCR6 (Homo sapiens, UniProt P51684).
T5 construct: The entire GPCR coding regions were cloned downstream of the CMV promoter and upstream of the ED; expressed in transfected cells; host or cells: HEK293 or CHOK1 cells, retroviral infection (pLNCX2)
Description: PathHunter β-arrestin2-EA / GPCR-ED enzyme fragment complementation, CCR6-ED fusion. The settings on record: saturating ligand.
From the text: as §1, §2, §3

Another assay deals with T6, PTHR2 (Homo sapiens, UniProt P49190).
T6 construct: The entire GPCR coding regions were cloned downstream of the CMV promoter and upstream of the ED; expressed in transfected cells; host or cells: HEK293 or CHOK1 cells, retroviral infection (pLNCX2)
Description: PathHunter β-arrestin2-EA / GPCR-ED enzyme fragment complementation, PTHR2-ED fusion. The settings on record: PTHR2 fused to PK2 ED; saturating ligand.
From the text: as §1, §2
Preparation of Detection Reagents—The detection reagents must be prepared as a working solution prior to use, and once prepared are stable for at least 24 hours at room temperature with no impact on assay performance. The detection reagents consist of the substrate and co-factors for chemiluminescence signal detection, as well as the reagents necessary for selective cell permeabilization. Working solution is prepared by combining PathHunter™ Cell Assay Buffer (DiscoveRx, Inc., Fremont, Calif.), Galacton Star® and Emerald II® reagent […]. reagents (ABI, Bedford, Mass.) at a ratio of 19:1:5. Sufficient reagent is provided in each kit to perform the indicated number of assays in a 384-well, full-volume microplate assuming an addition of 12 μl of detection reagent per well or in a 96-well, full-volume microplate assuming an addition of 50 μl of detection reagent per well. […]

A further assay concerns the target T7, SALPR (Homo sapiens, UniProt Q9NSD7).
T7 construct: The entire GPCR coding regions were cloned downstream of the CMV promoter and upstream of the ED; expressed in transfected cells; host or cells: HEK293 or CHOK1 cells, retroviral infection (pLNCX2)
In words: PathHunter β-arrestin2-EA / GPCR-ED enzyme fragment complementation, SALPR-ED fusion. Conditions: saturating ligand.
From the text: as §1, §2, §3

A further assay has as its target T8, CCR4 (Homo sapiens, UniProt P51679).
T8 construct: The entire GPCR coding regions were cloned downstream of the CMV promoter and upstream of the ED; expressed in transfected cells; host or cells: HEK293 or CHOK1 cells, retroviral infection (pLNCX2)
Description: PathHunter β-arrestin2-EA / GPCR-ED enzyme fragment complementation, CCR4-ED fusion. The settings on record: saturating ligand.
From the text: as §1, §2, §3

T6 sequence (P49190 25-550, species assumed): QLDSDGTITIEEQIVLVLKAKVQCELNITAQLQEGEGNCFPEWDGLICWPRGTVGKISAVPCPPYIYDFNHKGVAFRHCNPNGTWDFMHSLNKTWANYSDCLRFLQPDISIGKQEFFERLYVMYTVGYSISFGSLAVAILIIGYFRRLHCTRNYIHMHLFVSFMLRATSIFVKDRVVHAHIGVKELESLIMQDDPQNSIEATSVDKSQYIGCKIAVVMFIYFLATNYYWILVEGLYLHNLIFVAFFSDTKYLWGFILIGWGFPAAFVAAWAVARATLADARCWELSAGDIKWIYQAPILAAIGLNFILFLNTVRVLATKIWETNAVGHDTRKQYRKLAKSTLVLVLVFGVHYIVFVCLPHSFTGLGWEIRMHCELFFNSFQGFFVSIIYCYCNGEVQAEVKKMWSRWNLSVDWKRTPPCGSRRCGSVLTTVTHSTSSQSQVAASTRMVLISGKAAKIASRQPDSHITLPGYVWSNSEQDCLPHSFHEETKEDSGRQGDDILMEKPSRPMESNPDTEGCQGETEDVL
T6 sequence (P32121 whole entry partner, species assumed): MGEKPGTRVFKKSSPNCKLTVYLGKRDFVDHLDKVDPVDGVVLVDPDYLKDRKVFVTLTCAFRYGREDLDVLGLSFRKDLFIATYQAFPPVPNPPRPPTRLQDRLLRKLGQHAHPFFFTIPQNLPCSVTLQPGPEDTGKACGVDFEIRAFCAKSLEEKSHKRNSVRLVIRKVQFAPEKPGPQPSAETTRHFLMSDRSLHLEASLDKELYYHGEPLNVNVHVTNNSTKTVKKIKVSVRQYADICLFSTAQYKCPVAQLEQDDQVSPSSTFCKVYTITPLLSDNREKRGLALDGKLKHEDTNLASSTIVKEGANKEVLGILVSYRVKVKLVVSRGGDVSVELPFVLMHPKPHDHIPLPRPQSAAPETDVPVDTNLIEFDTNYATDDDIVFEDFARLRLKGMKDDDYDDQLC
T3 sequence (Q9Y5Y4 whole entry, species assumed): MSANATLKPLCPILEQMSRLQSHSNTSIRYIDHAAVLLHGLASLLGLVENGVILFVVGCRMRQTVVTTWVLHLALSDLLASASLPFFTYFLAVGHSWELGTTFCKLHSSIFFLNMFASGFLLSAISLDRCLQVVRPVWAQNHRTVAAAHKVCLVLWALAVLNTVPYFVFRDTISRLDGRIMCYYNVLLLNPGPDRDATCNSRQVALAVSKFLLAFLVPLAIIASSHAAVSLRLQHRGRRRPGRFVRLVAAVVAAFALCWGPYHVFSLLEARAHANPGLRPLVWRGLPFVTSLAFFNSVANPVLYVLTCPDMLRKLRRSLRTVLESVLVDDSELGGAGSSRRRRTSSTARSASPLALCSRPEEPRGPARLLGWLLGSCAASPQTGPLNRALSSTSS
T3 sequence (P32121 whole entry partner, species assumed): as the sequence (P32121 whole entry partner, species assumed) above
T7 sequence (Q9NSD7 whole entry, species assumed): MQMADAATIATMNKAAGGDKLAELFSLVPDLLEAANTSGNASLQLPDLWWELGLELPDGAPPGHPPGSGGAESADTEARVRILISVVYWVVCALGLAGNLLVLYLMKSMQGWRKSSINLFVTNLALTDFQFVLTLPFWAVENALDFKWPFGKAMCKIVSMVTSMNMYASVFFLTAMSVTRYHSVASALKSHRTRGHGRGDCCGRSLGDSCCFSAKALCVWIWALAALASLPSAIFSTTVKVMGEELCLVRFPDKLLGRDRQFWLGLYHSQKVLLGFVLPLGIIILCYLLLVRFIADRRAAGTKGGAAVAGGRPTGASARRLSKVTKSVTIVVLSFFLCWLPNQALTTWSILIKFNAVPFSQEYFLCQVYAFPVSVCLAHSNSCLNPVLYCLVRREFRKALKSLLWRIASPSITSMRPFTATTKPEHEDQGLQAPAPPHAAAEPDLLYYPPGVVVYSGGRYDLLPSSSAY
T7 sequence (P32121 whole entry partner, species assumed): as the sequence (P32121 whole entry partner, species assumed) above
T5 sequence (P51684 whole entry): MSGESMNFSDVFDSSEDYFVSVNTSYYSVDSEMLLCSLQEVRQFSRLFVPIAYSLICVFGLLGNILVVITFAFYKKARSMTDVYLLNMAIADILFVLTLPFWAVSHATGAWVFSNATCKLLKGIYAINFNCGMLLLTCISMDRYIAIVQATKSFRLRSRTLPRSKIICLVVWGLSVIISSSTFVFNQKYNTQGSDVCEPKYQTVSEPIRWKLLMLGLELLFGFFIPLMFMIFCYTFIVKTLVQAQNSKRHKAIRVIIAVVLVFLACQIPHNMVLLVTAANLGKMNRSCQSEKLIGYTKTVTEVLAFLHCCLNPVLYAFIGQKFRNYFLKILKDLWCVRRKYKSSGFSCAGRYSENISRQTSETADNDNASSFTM
T5 sequence (P32121 whole entry partner): as the sequence (P32121 whole entry partner, species assumed) above
T1 sequence (P31391 whole entry, species assumed): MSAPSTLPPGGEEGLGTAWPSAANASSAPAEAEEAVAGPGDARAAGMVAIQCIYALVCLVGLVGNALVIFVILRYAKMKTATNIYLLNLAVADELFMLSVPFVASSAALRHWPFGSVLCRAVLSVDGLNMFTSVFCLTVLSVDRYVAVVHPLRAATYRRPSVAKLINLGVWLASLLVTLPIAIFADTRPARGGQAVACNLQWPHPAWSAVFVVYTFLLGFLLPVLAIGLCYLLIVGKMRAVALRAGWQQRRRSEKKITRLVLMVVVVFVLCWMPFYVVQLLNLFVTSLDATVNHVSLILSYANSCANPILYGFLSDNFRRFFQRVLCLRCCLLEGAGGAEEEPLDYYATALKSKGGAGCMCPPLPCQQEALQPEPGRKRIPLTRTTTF
T1 sequence (P32121 whole entry partner, species assumed): as the sequence (P32121 whole entry partner, species assumed) above
T4 sequence (Q15077 whole entry, species assumed): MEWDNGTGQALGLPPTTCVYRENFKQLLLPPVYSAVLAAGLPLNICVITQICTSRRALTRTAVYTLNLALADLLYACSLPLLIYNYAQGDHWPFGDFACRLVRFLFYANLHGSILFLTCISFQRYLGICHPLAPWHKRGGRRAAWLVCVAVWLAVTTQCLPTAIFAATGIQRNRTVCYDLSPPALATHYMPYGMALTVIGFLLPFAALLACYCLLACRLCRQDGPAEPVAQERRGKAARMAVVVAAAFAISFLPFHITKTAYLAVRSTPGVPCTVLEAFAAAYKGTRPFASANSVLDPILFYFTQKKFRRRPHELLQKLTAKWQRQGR
T4 sequence (P32121 whole entry partner, species assumed): as the sequence (P32121 whole entry partner, species assumed) above
T8 sequence (P51679 whole entry): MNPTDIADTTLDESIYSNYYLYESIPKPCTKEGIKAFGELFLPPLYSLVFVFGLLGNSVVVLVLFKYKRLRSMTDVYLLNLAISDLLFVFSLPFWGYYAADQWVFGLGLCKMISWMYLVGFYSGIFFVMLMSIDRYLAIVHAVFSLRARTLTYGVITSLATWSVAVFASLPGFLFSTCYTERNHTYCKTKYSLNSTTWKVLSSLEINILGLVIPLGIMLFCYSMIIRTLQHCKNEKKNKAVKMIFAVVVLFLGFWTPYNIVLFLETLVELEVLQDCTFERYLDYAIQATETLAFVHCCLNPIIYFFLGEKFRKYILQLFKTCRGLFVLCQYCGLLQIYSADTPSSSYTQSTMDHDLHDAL
T8 sequence (P32121 whole entry partner): as the sequence (P32121 whole entry partner, species assumed) above
T2 sequence (P08172 whole entry, species assumed): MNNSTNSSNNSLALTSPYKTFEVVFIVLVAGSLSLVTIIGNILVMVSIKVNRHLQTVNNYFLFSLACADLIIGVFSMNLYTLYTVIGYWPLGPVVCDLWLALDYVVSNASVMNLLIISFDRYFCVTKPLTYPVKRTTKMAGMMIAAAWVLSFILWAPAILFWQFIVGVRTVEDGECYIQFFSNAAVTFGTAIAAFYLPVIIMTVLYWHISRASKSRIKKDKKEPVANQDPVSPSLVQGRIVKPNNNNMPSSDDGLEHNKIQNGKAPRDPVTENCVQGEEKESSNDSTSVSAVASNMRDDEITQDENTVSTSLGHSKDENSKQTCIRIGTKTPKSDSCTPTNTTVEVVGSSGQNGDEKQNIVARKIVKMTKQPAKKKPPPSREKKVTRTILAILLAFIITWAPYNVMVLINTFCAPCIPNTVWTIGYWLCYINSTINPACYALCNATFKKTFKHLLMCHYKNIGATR
T2 sequence (P32121 whole entry partner, species assumed): as the sequence (P32121 whole entry partner, species assumed) above
From the text for SSTR4: The cells used were HEK293 and CHOK1 cells. […] The viral plasmid was the PLNCX2 vector from Clontech. The plasmid includes sufficient retroviral sequences to enable viral production in the appropriate packaging cell lines. The plasmid also includes the neomycin antibiotic resistance gene and a CMV promoter that is used to drive expression of the target ED fusion. […] The ED is fused at the intracellular terminus, i.e., C-terminus of the proteins.
Preparation of Detection Reagents—The detection reagents must be prepared as a working solution prior to use, and once prepared are stable for at least 24 hours at room temperature with no impact on assay performance. The detection reagents consist of the substrate and co-factors for chemiluminescence signal detection, as well as the reagents necessary for selective cell permeabilization. Working solution is prepared by combining PathHunter™ Cell Assay Buffer (DiscoveRx, Inc., Fremont, Calif.), Galacton Star® and Emerald II® reagent to 25 μl of cells+compound. reagents (ABI, Bedford, Mass.) at a ratio of 19:1:5.
The fourth column indicates the fold induction for each of the constructs, where saturating conditions of the ligand were employed.

For the molecule `COC(=O)[C@H](CCCN=C(N)N)NC(=O)CCCc1c(-c2ccccc2)[nH]c2c(F)cc(F)cc12` [L803,087], the results for the Fold induct. at SSTR4 (SSTR4 fused to PK1 ED) and on SSTR4 (SSTR4 fused to PK2 ED) were 1.8 fold and 2.1 fold, respectively. For `C[N+](C)(C)CC#CCN1CCCC1=O` [Oxotremorine M], the Fold induct. at CHRM2 (CHRM2 fused to PK2 ED) was determined as 6.1 fold. At CHRM2 (CHRM2 fused to PK1 ED), `O=C1CCCN1CC#CCN1CCCC1` [Oxotremorine] showed a Fold induct. of 1.6 fold. On to `CCCCC[C@H](O)/C=C/[C@H]1C(=O)C[C@H](O)[C@@H]1C/C=C\CCCC(=O)O` [Prostaglandin D2], for which the Fold induct. entry at CRTH2 (CRTH2 fused to PK1 ED) is recorded as “none”; on CRTH2 (CRTH2 fused to PK2 ED), 2.6 fold.

`O=c1ccn([C@@H]2O[C@H](COP(=O)(O)OP(=O)(O)O)[C@@H](O)[C@H]2O)c(=O)[nH]1` [UDP]: the Fold induct. on P2RY6 (P2RY6 fused to PK1 ED) came to 1.3 fold; on P2RY6 (P2RY6 fused to PK2 ED), 1.9 fold. As to CCL20, the Fold induct. in the assay with CCR6 (CCR6 fused to PK1 ED) stood at 1.4 fold; with CCR6 (CCR6 fused to PK2 ED), 6.5 fold. For the molecule PTH (1-34), the Fold induct. with PTHR2 is recorded as 72.9 fold. On the same count and under the same terms, the result for PTHRP reads “none”; that for TIP39, 2.8 fold.

B1: Relaxin-3 (protein)
chain: RAAPYGVRLCGREFIRAVIFTCGGSRWRRSDILAHEAMGDTFPDADADEDSLAGELDEAMGSSEWLALTKSPQAFYRGRPSWQGTPGVLRGSRDVLAGLSSSCCKWGCSKSEISSLC
notes: ligand employed for SALPR
As for B1, the figures for the Fold induct. result with SALPR (SALPR fused to PK1 ED) and with SALPR (SALPR fused to PK2 ED) were “none” and 1.8 fold, respectively.

B2: CCL22 (protein)
chain: GPYGANMEDSVCCRDYVRYRLPLRVVKHFYWTSDSCPRPGVVLLTFRDKEICADPRVPWVKMILNKLSQ
notes: ligand employed for CCR4
For the molecule B2, the Fold induct. with CCR4 (CCR4 fused to PK1 ED) was determined as 18.9 fold; with CCR4 (CCR4 fused to PK2 ED) it was 3 fold.

(Values after patent publication US8101373B2, “β-galactosidase donor fragments” (Discoverx Corporation, priority 2007, dated 2012).)
